{"source": "patent US20200102389A1", "about": "(Hoffmann-La Roche, published 2020)", "binders": {"B1": {"name": "HLA-G-0033 (antibody, V domains shown)", "VH": "EVQLVETGGGLVQSGRSLKLSCVASGFTFNDYWMTWTRQAPGKGLEWVASITNSGGRTYYLDSVRGRFTISRDDAQNTLYLQMNSLRSEDTATYYCTKERIYLTAYWFFDFWGPGTMVTVSS", "VL": "DTILTQSPALAVSPGERVTISCRASESVSTLIHWYQQKPGQRPKLLIYLASHLESGVPARFSGSGSGTDFTLTIDPVEADDTATYYCQQSWNEPRTFGGGTKLELK"}, "B2": {"name": "HLA-G-0037 (antibody, V domains shown)", "VH": "QVQLKESGPGLVQPSQTLSLTCSVSGFSLTTYSVSWVRQPPGKGLEWIGAIWSGGSTDYNSALKSRLRISRDTSKSQVLLKMNSLQTEDRAMYFCVRMNNKFGYWYFDLWGPGTMVTVSS", "VL": "DTVLTQSPTLAVSPGEKITISCRASETVSTMLHWYQQKPGQQPKLLISLASHLESGVPARFTGSGSGTDFTLTIDPVEADDTATYYCQQTWNDPLTFGSGTKLEIK"}, "B3": {"name": "HLA-G-0032 (antibody, V domains shown)", "VH": "QVQLQQSGAELVKPGSSVKISCKASGYSFPSYDMHWIKQQPGNGLEWIGWIYPGNGNTKYNQKFNGKASLTADKSSSTAYMQLSSLTSEDSAVYFCAKPTVATRYNWFAYWGQGTLVTVSS", "VL": "QIVLTQSPALMSASPGEKVTMTCSASSSVNYMHWYQQKPRSSPKPWIYLTSNLASGVPARFSGSGSGTSYSLTISTMEAEDAATYYCQQWSSNLPITFGSGTKLEIK"}}, "data": [{"biological_target": "T1, recombinant soluble human HLA-G β2M MHC class I complex, trimer (human)", "T1 construct": "also called HLA-G Trimer; fraction A8", "experiment": "ELISA, HLA-G trimer coated on plate", "description": "The above table summarizes the binding of different rat anti-human HLA-G monoclonal antibodies, derived from wt protein IMS. Shown are the relative EC50 values [ng/ml] of the respective binding to rec. wt monomeric, dimeric and trimeric HLA-G proteins as assessed by ELISA. The ELISA was set up by coating the biotinylated wt HLA-G antigen to strepdavidin plates. After incubation and washing steps, the respective antibodies were bound in a concentration range from 10-0 μg in 1:2 dilution steps. Detection of bound antibodies was carried out by anti-Fc-antibody-POD conjugates. EC50 values were determined from the resulting binding curves at the antibody concentrations generating the half-maximal signal. In case of the non-biotinylated HLA-G dimer and trimer antigens, immobilization was carried out by random coating on assay plates.", "units": {"EC50": "nM"}, "values": [{"binder": "B1", "EC50": 1.54}, {"binder": "B2", "EC50": 2.5}, {"binder": "B3", "EC50": 1.76}]}, {"biological_target": "T2, recombinant soluble human HLA-G β2M MHC class I complex, monomer (human)", "T2 construct": "His tagged; also called HLA-G-0003", "experiment": "competition ELISA, immobilised biotinylated wt HLA-G, competitor c-myc ILT2", "description": "(§1) Streptavidin coated plates (Nunc, MicroCoat #11974998001) were coated with 25 μl/well biotinylated human wt HLA-G at a concentration of 500 ng/ml and incubated at 4° C. overnight. After washing (3×90 μl/well with PB ST-buffer) 25 μl anti-HLA-G samples were added in decreasing concentrations starting at 8 μg/ml, then diluted in 1:3 steps and incubated 1 h at RT. After washing (3×90 μl/well with PBST-buffer) 25 μl/well c-myc-tagged recombinant ILT-2 receptor was added at a concentration of 150 ng/ml and incubated for 1 h at room temperature. After washing (3×90 μl/well with PBST-buffer) 25 μl/well goat-anti-c-myc-POD (Bethyl #A190-104P 1:7000 in OSE) was added and incubated at RT for 1 h on a shaker. After washing (6×90 μl/well with PBST-buffer), 25 μl/well TMB substrate (Roche, 11835033001) was added and incubated until OD 2-3. Measurement took place on a Tecan Safire 2 instrument at 370/492 nm\n(§2) The ELISA was set up by coating the biotinylated antigen wt HLA-G to strepdavidin plates. After incubation and washing steps, the respective antibodies were bound in a concentration range from 8-0 μg in 1:3 dilution steps. C-myc tagged ILT-2 or -4 receptor was added to the HLA-G-antibody complexes. After incubation and washing steps, detection of bound receptor was carried out by anti-cmyc-antibody-POD conjugates. IC50 values were determined from the resulting inhibition curves at the antibody concentrations generating the half-maximal inhibition. In case of the non-biotinylated HLA-G dimer and trimer antigens, immobilization was carried out by random coating on assay plates.", "units": {"% inh. ILT2 (3 µg/ml antibody)": "%"}, "values": [{"binder": "B1", "% inh. ILT2 (3 µg/ml antibody)": 85.3}, {"binder": "B2", "% inh. ILT2 (3 µg/ml antibody)": 82.9}, {"binder": "B3", "% inh. ILT2 (3 µg/ml antibody)": 86.8}]}, {"biological_target": "T3, recombinant soluble human HLA-G β2M MHC class I complex, dimer (human)", "T3 construct": "also called HLA-G Dimer; fraction A9", "experiment": "blocking ELISA, Fc tagged ILT4 coated, 100 nM antibody, soluble HLA-G dimer", "description": "(§3) The ELISA was set up by coating the Fc tagged ILT2 and ILT4 respectively to Maxisorp microtiter plates. After incubation and washing steps, the respective antibodies were added at a concentration of 100nM. Soluble His tagged monomeric, dimeric or trimeric HLA-G was added to the wells. After incubation and washing steps, detection of bound receptor was carried out by anti-His-antibody-POD conjugates.", "units": {"% inh. ILT4": "%"}, "values": [{"binder": "B1", "% inh. ILT4": 70}, {"binder": "B2", "% inh. ILT4": 61}, {"binder": "B3", "% inh. ILT4": 62}]}, {"biological_target": "T2, recombinant soluble human HLA-G β2M MHC …", "experiment": "blocking ELISA, Fc tagged ILT2 coated, 100 nM antibody, soluble HLA-G monomer", "description": "as §3", "units": {"% inh. ILT2": "%"}, "values": [{"binder": "B1", "% inh. ILT2": 75}, {"binder": "B2", "% inh. ILT2": 73}, {"binder": "B3", "% inh. ILT2": 75}]}, {"biological_target": "T2, recombinant soluble human HLA-G β2M MHC …", "experiment": "blocking ELISA, Fc tagged ILT4 coated, 100 nM antibody, soluble HLA-G monomer", "description": "as §3", "units": {"% inh. ILT4": "%"}, "values": [{"binder": "B1", "% inh. ILT4": 14}, {"binder": "B2", "% inh. ILT4": 1}, {"binder": "B3", "% inh. ILT4": 12}]}, {"biological_target": "T4, human HLA-G expressed on cells (JEG3 naturally; SKOV3 HLA-G+ and PA-TU-8902 HLA-G+ transfectants) (human, UniProt P17693 25-338)", "T4 construct": "whole, on cells; also called cell surface HLA-G; HLA-G on JEG3 cells", "experiment": "flow cytometry, JEG3 cells pre-incubated with antibody, competitor ILT2-Fc chimera", "description": "For analysis, JEG3 cells (ATCC HTB36) were stained with ILT2-Fc fusion proteins (control=no inhibition) with or without pre-incubation with different anti-HLA-G antibodies. For the pre-incubation with anti-HLA-G antibodies 25 μl/well of the cell suspension was transferred into a polypropylene 96-Well V-bottom plate and prechilled in the at 4° C. for 10 min. Anti HLA-G antibodies or reference antibodies (G233, MEM-G/9 or 87G) were diluted in staining buffer to a 2-fold concentration of 20 μg/ml and 25 μl/well of the antibody solution was added to the prepared cells and incubated for 1 h at 5° C. Cells were washed twice with 200 μl/well staining buffer with centrifugation at 300 g for 3 min and finally resuspended in 25 μl/well staining buffer.\nThe detection of human ILT2-Fc Chimera protein (RD #2017-T2-050) to a) JEG3 cells pre-incubated anti HLA-G mAb or b) untreated JEG3 cells as reference was determined as follows: Briefly, the ILT2-Fc or control human IgG (Jackson-Immuno-Research #009-000-003) were diluted in staining buffer to a 2-fold concentration of 20 μg/ml (ILT2) and 25 μl/well of the ILT2-Fc protein solution was added to the prepared cells and incubated for 2 h at 5° C. Cells were again washed twice with 200 μl/well staining buffer the human ILT2-Fcprotein was detected with fluorescent labeled anti human IgG Fc-gamma specific antibody (F(ab′)₂ Fragment Goat Anti-Human IgG, Fcy fragment specific-FITC, Jackson-Immuno-Research #109-096-008) at a dilution of 10 μg/ml in staining buffer. Cell pellets were resuspended in 50 μl/well detection antibody. After a 1-hour incubation at 5° C. cells were washed twice with staining buffer, resuspended in 70 μl and measured at a FACS Canto II to determine ILT2 binding to JEG 3 cells.", "units": {"Inhibition of ILT2 binding to Jeg3 cells": "%"}, "values": [{"binder": "B1", "Inhibition of ILT2 binding to Jeg3 cells": -9.3}, {"binder": "B2", "Inhibition of ILT2 binding to Jeg3 cells": 96.5}, {"binder": "B3", "Inhibition of ILT2 binding to Jeg3 cells": 98.1}]}, {"biological_target": "T3, recombinant soluble human HLA-G β2M MHC …", "experiment": "competition ELISA, immobilised HLA-G dimer, antibody titrated, competitor c-myc ILT2", "description": "as §2", "units": {"IC50": "nM"}, "values": [{"binder": "B1", "IC50": 1.2}, {"binder": "B2", "IC50": 0.8}, {"binder": "B3", "IC50": 1.3}]}, {"biological_target": "T1, recombinant soluble human HLA-G β2M MHC …", "experiment": "competition ELISA, immobilised HLA-G trimer, antibody titrated, competitor c-myc ILT2", "description": "as §2", "units": {"IC50": "nM"}, "values": [{"binder": "B1", "IC50": 0.5}, {"binder": "B2", "IC50": 0.1}, {"binder": "B3", "IC50": 0.4}]}, {"biological_target": "T1, recombinant soluble human HLA-G β2M MHC …", "experiment": "competition ELISA, immobilised HLA-G trimer, antibody titrated, competitor c-myc ILT4", "description": "as §2", "units": {"IC50": "nM"}, "values": [{"binder": "B1", "IC50": 61.5}, {"binder": "B2", "IC50": "> 200"}, {"binder": "B3", "IC50": 71.3}]}, {"biological_target": "T2, recombinant soluble human HLA-G β2M MHC …", "experiment": "competition ELISA, immobilised HLA-G monomer, antibody titrated, competitor c-myc ILT2", "description": "as §1, §2", "units": {"IC50": "nM"}, "values": [{"binder": "B1", "IC50": 8}, {"binder": "B2", "IC50": 13}, {"binder": "B3", "IC50": 8.4}]}]}
